T1: E. coli Aquaporin Z (AqpZ) (E. coli), P60844
T1 chain: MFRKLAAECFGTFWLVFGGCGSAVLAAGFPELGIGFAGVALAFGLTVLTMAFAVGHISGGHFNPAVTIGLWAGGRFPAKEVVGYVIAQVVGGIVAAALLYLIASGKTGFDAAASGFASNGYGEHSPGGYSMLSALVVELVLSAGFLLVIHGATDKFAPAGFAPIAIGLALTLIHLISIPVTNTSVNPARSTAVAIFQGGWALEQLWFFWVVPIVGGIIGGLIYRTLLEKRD


Tests used:
[1] = biological target: AqpZ nanodiscs (AqpZ, MSP1E3D1 and DOPC/POPG 4:1) (E. coli | not stated) (UniProt P60844); test: mass photometry; 10 nM AqpZ nanodiscs in TEN buffer (300 mM NaCl); nanodisc with nanodisc
[2] = biological target: T1, E. coli Aquaporin Z (AqpZ) (E. coli), …; test: SDS-PAGE with or without heating; purified AqpZ nanodiscs (ND) or AqpZ in OG micelles, heated to 70 °C or unheated; conditions: remark: other sources report otherwise

stoichiometry N [1] | stoichiometry N [2] | Molecule
2 |  | AqpZ nanodiscs (AqpZ, MSP1E3D1 and DOPC/POPG 4:1) (from UniProt P60844 1-231) (complex)
 | 4 | E. coli Aquaporin Z (AqpZ), P60844 1-231 (natural protein) MFRKLAAECFGTFWLVFGGCGSAVLAAGFPELGIGFAGVALAFGLTVLTMAFAVGHISGGHFNPAVTIGLWAGGRFPAKEVVGYVIAQVVGGIVAAALLYLIASGKTGFDAAASGFASNGYGEHSPGGYSMLSALVVELVLSAGFLLVIHGATDKFAPAGFAPIAIGLALTLIHLISIPVTNTSVNPARSTAVAIFQGGWALEQLWFFWVVPIVGGIIGGLIYRTLLEKRD
